Consider 2 molecules from paper PMC8565326, “Structural dissection of sequence recognition and catalytic mechanism of human LINE-1 endonuclease”.

The target in data set [1] is T1, L1-EN D145A/Y226K (LINE-1 ORF2p endonuclease domain) (human, UniProt O00370 1-238, D145A;Y226K). In words: X-ray crystallography; no Mg2+; 0.1 M MES pH 6.0, 0.2 M NaCl, 30% Jeffamine ED-2003; 2.8 A; Co-crystallization: protein 16-24 mg/ml in 300 mM NaCl, 15 mM HEPES pH 7.5, 2% glycerol, 1 mM TCEP, DNA:protein 1.2:1; crystallization pH 6.0 (dna17) or 4.5 (dna14); temperature not stated. Conditions: protein: recombinant; tags: N-terminal 6xHis-SUMO, cleaved with Ulp1; single-nucleotide T/A overhangs at the ends.
T1 sequence (O00370 1-238 D145A/Y226K): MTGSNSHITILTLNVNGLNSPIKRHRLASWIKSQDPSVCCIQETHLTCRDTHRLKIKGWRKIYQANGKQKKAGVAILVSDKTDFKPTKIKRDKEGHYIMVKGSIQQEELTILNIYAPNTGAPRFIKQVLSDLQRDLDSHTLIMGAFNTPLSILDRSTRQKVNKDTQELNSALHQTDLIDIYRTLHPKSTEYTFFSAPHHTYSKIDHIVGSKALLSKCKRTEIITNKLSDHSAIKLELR

The target of data set [2] is T1, L1-EN D145A/Y226K (LINE-1 ORF2p …). In words: X-ray crystallography; no Mg2+; 0.1 M sodium acetate pH 4.5, 0.2 M ammonium acetate, 15% PEG 4000; 2.8 A; Co-crystallization: protein 16-24 mg/ml in 300 mM NaCl, 15 mM HEPES pH 7.5, 2% glycerol, 1 mM TCEP, DNA:protein 1.2:1; crystallization pH 6.0 (dna17) or 4.5 (dna14); temperature not stated. As to conditions: protein: recombinant; tags: N-terminal 6xHis-SUMO, cleaved with Ulp1; single-nucleotide T/A overhangs at the ends.

B1: dna17 (dsDNA)
DNA 1: GCTCCTTTTTAAGGGCTA
DNA 2: AGCCCTTAAAAAGGAGCT
Take B1: the binding result in data set [1] was “binds”.

B2: dna14 (dsDNA)
DNA 1: GCTCCTTTTTAAGGA
DNA 2: CCTTAAAAAGGAGCT
With B2, the binding result in data set [2] is given as “binds”.
